Laboratory results from article PMC7987032 (medRxiv, 2021).

Target: SARS-CoV-2 RBD (SARS-CoV-2 (Wuhan-Hu-1), UniProt P0DTC2)
Experiment: BLI

B1: CV2-75 (antibody, V domains shown)
VH: QVQLQESGPGLVKPSETLSLTCTVSGGSISSYYWSWIRQPPGKGLEWIGYVYYSGSTNYNPSLKSRVTISVDTSKNEFSLKLSSVTAADTAVYYCASSQRPDGNLYYFDYWGQGTLVTVSS
VL: SYVLTQPPSVSVAPGQTARITCGGNNIGSKTVHWYQQKPGQAPVLVVYDDSDRPSGIPERFSGSNSGNTATLTISRVEAGDEADYYCQVWDSSSDHYVFGTGTKVTVL
binding result: binds
